Results on 1 substance are retold here after publication PMC4902928, “Molecular characterization of flavanone 3-hydroxylase gene and flavonoid accumulation in two chemotyped safflower lines in response to methyl jasmonate stimulation” (BMC Plant Biology, 2016).

The test system of the data set is T1, O=C1C[C@@H](c2ccc(O)cc2)Oc2cc(O)cc(O)c21.
T1 construct: MBP fusion (pMAL-c5X) from E. coli BL21(DE3)pLysS, MBP tag cut off by factor Xa
In words: UPLC-Q-TOF/MS of dihydrokaempferol formed; Michaelis-Menten fit. Type of data set: biochemical, Carthamus tinctorius. As to conditions: 1 mM 2-oxoglutaric acid, 40 μM FeSO4, 2 mg/ml ascorbic acid, 100 mM tricine pH 7.5, 30 °C, naringenin 10-800 μM, unit misprinted as 'Mm'.

Chain of CtF3H (Carthamus tinctorius) (chain, as listed by the source): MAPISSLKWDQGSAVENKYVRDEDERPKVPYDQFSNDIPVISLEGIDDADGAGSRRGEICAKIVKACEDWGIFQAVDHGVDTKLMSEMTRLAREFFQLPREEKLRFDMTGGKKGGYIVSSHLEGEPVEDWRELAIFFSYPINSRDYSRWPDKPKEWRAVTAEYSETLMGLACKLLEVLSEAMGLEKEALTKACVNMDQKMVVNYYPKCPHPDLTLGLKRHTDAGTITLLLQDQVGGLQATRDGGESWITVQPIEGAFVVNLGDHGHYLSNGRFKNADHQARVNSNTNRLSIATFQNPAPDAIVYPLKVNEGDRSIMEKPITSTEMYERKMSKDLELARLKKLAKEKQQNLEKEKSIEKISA

With CtF3H (Carthamus tinctorius), the Km turned out to be 43.75 ± 7.12 µM.
